Measured values from patent US20200129634A1.
Each block holds one binder with its values, some of them ahead of it. Non-standard residues stand in square brackets, D forms with d. No end group written: not given here.

Columns and labels:
D35 (D39(A13K/A16K)) = assay: RP-HPLC temperature profiling 5-77 C, pH 2, self-association (dimerization/oligomerization) relative to random coil control RC
human serum proteins = assay: cell-based or functional assay
D34 (D38(A13K/A16K)) = assay: RP-HPLC temperature profiling 5-77 C, pH 2, self-association (dimerization/oligomerization) relative to random coil control RC
D84 (D33(A1K)) [1] = assay: RP-HPLC temperature profiling (0.25% B/min gradient), Mix 2, self-association relative to RC
D84 (D33(A1K)) [2] = assay: RP-HPLC temperature profiling (0.25% B/min gradient), Mix 1, self-association relative to RC
D84 (D33(A1K)) [3] = assay: RP-HPLC temperature profiling (0.25% B/min gradient), Mix 3, self-association relative to RC
D84 (D33(A1K)) [4] = assay: RP-HPLC temperature profiling (0.25% B/min gradient), Mix 4, self-association relative to RC
D36 (D40(A13K/A16K)) = assay: RP-HPLC temperature profiling 5-77 C, pH 2, self-association (dimerization/oligomerization) relative to random coil control RC

B1: D35 (D39(A13K/A16K)) (peptide)
peptide: [dA][dL][dK][dS][dL][dL][dA][dT][dL][dS][dK][dA][dK][dK][dK][dK][dL][dK][dT][dL][dL][dA][dA][dL][dS][dK]-NH2
modifications: N-terminus assumed
SMILES: CC(C)C[C@@H](NC(=O)[C@@H](C)N)C(=O)N[C@H](CCCCN)C(=O)N[C@H](CO)C(=O)N[C@H](CC(C)C)C(=O)N[C@H](CC(C)C)C(=O)N[C@H](C)C(=O)N[C@@H](C(=O)N[C@H](CC(C)C)C(=O)N[C@H](CO)C(=O)N[C@H](CCCCN)C(=O)N[C@H](C)C(=O)N[C@H](CCCCN)C(=O)N[C@H](CCCCN)C(=O)N[C@H](CCCCN)C(=O)N[C@H](CCCCN)C(=O)N[C@H](CC(C)C)C(=O)N[C@H](CCCCN)C(=O)N[C@@H](C(=O)N[C@H](CC(C)C)C(=O)N[C@H](CC(C)C)C(=O)N[C@H](C)C(=O)N[C@H](C)C(=O)N[C@H](CC(C)C)C(=O)N[C@H](CO)C(=O)N[C@H](CCCCN)C(N)=O)[C@H](C)O)[C@H](C)O
PA (self-association parameter) (D35 (D39(A13K/A16K))): 5.5 min
MIC against A. baumannii strain 649 in 25% human serum (no serum: 0.4) (human serum proteins): 1.4 µM

B2: D34 (D38(A13K/A16K)) (peptide)
peptide: [dA][dL][dK][dS][dL][dL][dK][dT][dL][dS][dA][dA][dK][dK][dK][dK][dL][dA][dT][dL][dL][dK][dA][dL][dS][dK]-NH2
modifications: N-terminus assumed
SMILES: CC(C)C[C@@H](NC(=O)[C@@H](C)N)C(=O)N[C@H](CCCCN)C(=O)N[C@H](CO)C(=O)N[C@H](CC(C)C)C(=O)N[C@H](CC(C)C)C(=O)N[C@H](CCCCN)C(=O)N[C@@H](C(=O)N[C@H](CC(C)C)C(=O)N[C@H](CO)C(=O)N[C@H](C)C(=O)N[C@H](C)C(=O)N[C@H](CCCCN)C(=O)N[C@H](CCCCN)C(=O)N[C@H](CCCCN)C(=O)N[C@H](CCCCN)C(=O)N[C@H](CC(C)C)C(=O)N[C@H](C)C(=O)N[C@@H](C(=O)N[C@H](CC(C)C)C(=O)N[C@H](CC(C)C)C(=O)N[C@H](CCCCN)C(=O)N[C@H](C)C(=O)N[C@H](CC(C)C)C(=O)N[C@H](CO)C(=O)N[C@H](CCCCN)C(N)=O)[C@H](C)O)[C@H](C)O
PA (self-association parameter) (D34 (D38(A13K/A16K))): 5.7 min
MIC against A. baumannii strain 649 in 25% human serum (no serum: 0.2) (human serum proteins): 1.4 µM

Continued, values first:

PA (self-association parameter) (D84 (D33(A1K)) [1]): 6.8 min
PA (self-association parameter) (D84 (D33(A1K)) [2]): 6.8 min
PA (self-association parameter) (D84 (D33(A1K)) [3]): 6.8 min
PA (self-association parameter) (D84 (D33(A1K)) [4]): 6.8 min
B3: D84 (D33(A1K)) (peptide)
peptide: Ac-KLKSLLKTLSKAKAAKLKTLLKALSK-NH2
modifications: not fully specified; also: D-enantiomeric residues, extent not given here

PA (self-association parameter) (D36 (D40(A13K/A16K))): 5.6 min
MIC against A. baumannii strain 649 in 25% human serum (no serum: 0.4) (human serum proteins): 0.7 µM
B4: D36 (D40(A13K/A16K)) (peptide)
peptide: [dA][dL][dA][dS][dL][dL][dK][dT][dL][dS][dK][dA][dK][dK][dK][dK][dL][dK][dT][dL][dL][dK][dA][dL][dS][dA]-NH2
modifications: N-terminus assumed
SMILES: CC(C)C[C@@H](NC(=O)[C@@H](C)N)C(=O)N[C@H](C)C(=O)N[C@H](CO)C(=O)N[C@H](CC(C)C)C(=O)N[C@H](CC(C)C)C(=O)N[C@H](CCCCN)C(=O)N[C@@H](C(=O)N[C@H](CC(C)C)C(=O)N[C@H](CO)C(=O)N[C@H](CCCCN)C(=O)N[C@H](C)C(=O)N[C@H](CCCCN)C(=O)N[C@H](CCCCN)C(=O)N[C@H](CCCCN)C(=O)N[C@H](CCCCN)C(=O)N[C@H](CC(C)C)C(=O)N[C@H](CCCCN)C(=O)N[C@@H](C(=O)N[C@H](CC(C)C)C(=O)N[C@H](CC(C)C)C(=O)N[C@H](CCCCN)C(=O)N[C@H](C)C(=O)N[C@H](CC(C)C)C(=O)N[C@H](CO)C(=O)N[C@H](C)C(N)=O)[C@H](C)O)[C@H](C)O
